These results are taken from the supplement of paper PMC10724198.

± gives the standard deviation of the averaged measurements.
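Further: PSI is a weighted mean of sequencing reads over stability bins, variants kept only with over 10 reads, mCherry proximal and sfGFP distal, peptide attached via GGGS linker.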

In this data set the test system is Saccharomyces cerevisiae. Kind of data set: protein stability index of tFT-peptide fusion (C-terminal peptide) (PSI (0-1 scale)); higher = more stable (slower turnover). To be noted: genetic background: wild type; temperature: 30 C. As to the method:
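Multiplexed protein stability (MPS) profiling in S. cerevisiae. Random 12-aa peptides (tFT-X12 library) are fused to the C-terminus of a sfGFP-mCherry tandem fluorescent timer, after mCherry and a GGGS linker. Cells are FACS-sorted into 8 mCherry/sfGFP bins and deep-sequenced. The protein stability index (PSI) is the read-weighted bin average, scaled from 0 (unstable) to 1 (stable). Only peptides with >10 reads are reported; cells were grown at 30 °C in SC-His with glucose.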
In turn, EPWTEQPKLDSR yielded a protein stability index of 0.936 ± 0.091.

Take EPYHYAWTQRSW: the protein stability index was found to be 0.698 ± 0.015.

Sequence EQKVRSPIEMML yielded a protein stability index of 0.591 ± 0.0064.

As to EQQLSHENMQFK, the protein stability index was 0.68 ± 0.01.

In the case of EQRRAGPAEVTK, the protein stability index was found to be 0.694 ± 0.04.

EQSWAIQKVRQG displayed a protein stability index of 0.737 ± 0.025.

ERARGGRGVGGN: the protein stability index worked out at 0.678 ± 0.033.

ERARGKGAGKAE showed a protein stability index of 0.688 ± 0.019.

Sequence ERERQREKEKLK registered a protein stability index of 0.6735 ± 0.0038.

ERFRWRRNRSLG displayed a protein stability index of 0.672 ± 0.16.

ERGEEESGRSGS had a protein stability index of 0.7225 ± 0.0046.

Take ERGGWGVGSEVG: the protein stability index came to 0.719 ± 0.03.

Consider ERGKRSTEWARK, for which the protein stability index is 0.681 ± 0.042.

On to ERGRRPAGGGEK, for which the protein stability index is 0.719 ± 0.028.

ERIGVEERKGLE showed a protein stability index of 0.658 ± 0.021.

ERKDPNTNKVKS yielded a protein stability index of 0.678 ± 0.0083.

ERKKKKKERARG: the protein stability index is 0.767 ± 0.1.

Regarding ERNKKKNNQVNK, the protein stability index worked out at 0.619 ± 0.054.

ERNNTICREIIE: the protein stability index was found to be 0.686 ± 0.026.

ERRELSAHVYLD came in with a protein stability index of 0.665 ± 0.1.

In turn, ERRGGRKGRGRE gave a protein stability index of 0.662 ± 0.02.

Turning to ERRGSLSWPIPP, the protein stability index is 0.722 ± 0.036.

In turn, ERSKTMVAGGEE returned a protein stability index of 0.686 ± 0.062.

The sequence ERVMMKNDSIVT gave a protein stability index of 0.623 ± 0.1.

Turning to ESKATIRTRARN, the protein stability index came to 0.74 ± 0.028.

As for ESKCADNKMKRK, the protein stability index came out at 0.652 ± 0.022.

As to ESQKKEKTKPKN, the protein stability index was found to be 0.655 ± 0.023.

In the case of ESRWRSPCFIIW, the protein stability index was 0.626 ± 0.11.

Take ESSKVRNLELLK: the protein stability index came out at 0.669 ± 0.017.

The sequence ESTKKQSTAPKN gave a protein stability index of 0.714 ± 0.043.

ESVGLGDRRVCS showed a protein stability index of 0.65 ± 0.024.

Regarding ETEKHGIRRRQG, the protein stability index came to 0.644 ± 0.027.

With ETKKKTNKRAEK, the protein stability index turned out to be 0.689 ± 0.053.

In turn, ETRKINELRAKK returned a protein stability index of 0.642 ± 0.087.

In turn, ETRKKKLTNSRT gave a protein stability index of 0.622 ± 0.071.

In turn, EVAFGLLPPHDS yielded a protein stability index of 0.701 ± 0.019.

For EVESYVVSGDRW, the protein stability index is 0.608 ± 0.042.

EVFGNVREAHCV came in with a protein stability index of 0.707 ± 0.019.

Regarding EVVEDGAEEVGR, the protein stability index was determined as 0.685 ± 0.053.

EVWSYCPAFFVD gave a protein stability index of 0.736 ± 0.016.

EWALAESGYDEP came in with a protein stability index of 0.746 ± 0.05.

The sequence EWCQVGGRGFLG came in with a protein stability index of 0.74 ± 0.021.

Sequence EWEKKKRGNTRK showed a protein stability index of 0.642 ± 0.022.

EWRDSCLLKWWV displayed a protein stability index of 0.725 ± 0.015.

EWRWCESKIITV returned a protein stability index of 0.625 ± 0.028.

The sequence EWVLRTLVDTNW had a protein stability index of 0.728 ± 0.0075.

For EWVSGWIVRWWR, the protein stability index stood at 0.679 ± 0.076.

The sequence EYAVDAERLRTT registered a protein stability index of 0.72 ± 0.053.

With EYDIKRRKRRNT, the protein stability index was 0.67 ± 0.23.

Sequence EYISNLLSSPEP yielded a protein stability index of 0.633 ± 0.013.

Take EYRCVAQHSLLH: the protein stability index is 0.743 ± 0.049.

For EYRRADYCLGVG, the protein stability index was 0.547 ± 0.011.

As for FAAKASVLRMRR, the protein stability index was found to be 0.605 ± 0.029.

With FAFPQASHPVRI, the protein stability index was determined as 0.664 ± 0.063.

Sequence FAGGAVNIGVVG came in with a protein stability index of 0.71 ± 0.015.

FAGGPSIAAHVL: the protein stability index was 0.712 ± 0.2.

For the sequence FAIFSGMSFGVY, the protein stability index was 0.693 ± 0.05.

Take FALLVSDISGRI: the protein stability index is 0.811 ± 0.03.

In turn, FAPCSPKAVFCS came in with a protein stability index of 0.589 ± 0.037.

The sequence FAPSAGGSLAGP had a protein stability index of 0.698 ± 0.033.

For FARPQCLPVPLP, the protein stability index amounted to 0.6555 ± 0.001.

With FARQSMLSKLQI, the protein stability index amounted to 0.587 ± 0.033.

Consider FASTEDDKKNTT, for which the protein stability index was found to be 0.6746 ± 0.0029.

Sequence FAWSPPACFIPS yielded a protein stability index of 0.654 ± 0.011.
